Measurements as given in publication PMC7854634, “Cryo-EM of mammalian PA28αβ-iCP immunoproteasome reveals a distinct mechanism of proteasome activation by PA28αβ” (Nature Communications, 2021).

B1: human PA28β (natural protein)
chain: not shown
notes: C-terminal residue printed as Y239; Stood in the experiments as a subunit of m1; also called PA28 β1, β2, β3 (its copies in the heptamer); source: E. coli BL21 (DE3), co-expressed with PA28α, purified as the PA28αβ heteroheptamer
B2: human PA28α (natural protein)
chain: MAMLRVQPEAQAKVDVFREDLCTKTENLLGSYFPKKISELDAFLKEPALNEANLSNLKAPLDIPVPDPVKEKEKEERKKQQEKEDKDEKKKGEDEDKGPPCGPVNCNEKIVVLLQRLKPEIKDVIEQLNLVTTWLQLQIPRIEDGNNFGVAVQEKVFELMTSLHTKLEGFHTQISKYFSERGDAVTKAAKQPHVGDYRQLVHELDEAEYRDIRLMVMEIRNAYAVLYDIILKNFEKLKKPRGETKGMIY
notes: C-terminal residue printed as Y249; Stood in the experiments as a subunit of m1; also called PA28 α1, α2, α3, α4 (its copies in the heptamer); source: E. coli BL21 (DE3), co-expressed with PA28β, purified as the PA28αβ heteroheptamer
B3: bovine iCP subunit α5 (natural protein, UniProt Q5E987 1-241, looked up)
chain: MFLTRSEYDRGVNTFSPEGRLFQVEYAIEAIKLGSTAIGIQTSEGVCLAVEKRITSPLMEPSSIEKIVEIDAHIGCAMSGLIADAKTLIDKARVETQNHWFTYNETMTVESVTQAVSNLALQFGEEDADPGAMSRPFGVALLFGGVDEKGPQLFHMDPSGTFVQCDARAIGSASEGAQSSLQEVYHKSMTLKEAIKSSLIILKQVMEEKLNATNIELATVQPGQNFHMFTKEELEEVIKDI
notes: 20S proteasome subunit α5, bovine; Stood in the experiments as a subunit of m2; source: purified from bovine spleen as a subunit of the iCP
B4: bovine iCP subunit α4 (natural protein)
chain: not shown
notes: 20S proteasome subunit α4, bovine; Stood in the experiments as a subunit of m2; source: purified from bovine spleen as a subunit of the iCP
B5: bovine iCP subunit α2 (natural protein, UniProt Q3T0Y5 1-234, looked up)
chain: MAERGYSFSLTTFSPSGKLVQIEYALAAVAGGAPSVGIKAANGVVLATEKKQKSILYDERSVHKVEPITKHIGLVYSGMGPDYRVLVHRARKLAQQYYLVYQEPIPTAQLVQRVASVMQEYTQSGGVRPFGVSLLICGWNEGRPYLFQSDPSGAYFAWKATAMGKNYVNGKTFLEKRYNEDLELEDAIHTAILTLKESFEGQMTEDNIEVGICNEAGFRRLTPTEVKDYLAAIA
notes: 20S proteasome subunit α2, bovine; Stood in the experiments as a subunit of m2; source: purified from bovine spleen as a subunit of the iCP

Columns and labels:
Conditions in all cases: both partners purified
bovine iCP subunit α3 = target: T1, bovine iCP subunit α3 (bovine, UniProt Q3ZCK9 1-261); test: cryo-EM structure; PA28αβ and iCP mixed at a molar ratio of 10:1, 37 °C 30 min, cross-linked with 0.1% glutaraldehyde at 4 °C for 2 h, glycerol gradient; single-capped (4.1 Å) and double-capped (4.2 Å) complexes and free iCP (3.3 Å) from one data set
T1 construct: 20S proteasome subunit α3, bovine; Stood in the experiments as a subunit of m2; source: purified from bovine spleen as a subunit of the iCP

bovine iCP subunit α4 = target: B4; test: as above
bovine iCP subunit α6 = target: T2, bovine iCP subunit α6 (bovine, UniProt Q3T0X5 1-263); test: cross-linking; XL-MS: PA28αβ and iCP mixed 10:1, 37 °C 30 min, 0.25 mM BS3 on ice 2 h, glycerol gradient, trypsin digest, pLink2; E-value threshold 1.00E-02
T2 construct: 20S proteasome subunit α6, bovine; Stood in the experiments as a subunit of m2; source: purified from bovine spleen as a subunit of the iCP

human PA28α = target: B2; test: cryo-EM structure; PA28αβ and iCP mixed at a molar ratio of 10:1, 37 °C 30 min, cross-linked with 0.1% glutaraldehyde at 4 °C for 2 h, glycerol gradient; single-capped (4.1 Å) and double-capped (4.2 Å) complexes and free iCP (3.3 Å) from one data set
human PA28β = target: B1; test: as above

T1 sequence (Q3ZCK9 whole entry): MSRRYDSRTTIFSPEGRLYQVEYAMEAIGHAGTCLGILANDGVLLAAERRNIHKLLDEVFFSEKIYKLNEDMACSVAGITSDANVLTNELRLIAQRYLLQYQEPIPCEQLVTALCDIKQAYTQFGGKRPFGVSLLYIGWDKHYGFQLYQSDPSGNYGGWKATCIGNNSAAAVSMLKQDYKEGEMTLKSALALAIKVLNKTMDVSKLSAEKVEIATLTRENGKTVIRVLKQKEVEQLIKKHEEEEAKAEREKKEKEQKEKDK
T2 sequence (Q3T0X5 whole entry): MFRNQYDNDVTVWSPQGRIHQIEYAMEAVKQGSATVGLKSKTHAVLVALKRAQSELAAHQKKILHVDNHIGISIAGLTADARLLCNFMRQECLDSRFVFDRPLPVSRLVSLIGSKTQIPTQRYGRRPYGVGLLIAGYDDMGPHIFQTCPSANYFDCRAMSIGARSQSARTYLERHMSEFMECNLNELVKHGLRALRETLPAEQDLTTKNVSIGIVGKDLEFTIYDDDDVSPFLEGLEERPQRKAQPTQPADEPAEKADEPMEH
Chain of bovine iCP subunit α4 (Q3ZBG0 whole entry): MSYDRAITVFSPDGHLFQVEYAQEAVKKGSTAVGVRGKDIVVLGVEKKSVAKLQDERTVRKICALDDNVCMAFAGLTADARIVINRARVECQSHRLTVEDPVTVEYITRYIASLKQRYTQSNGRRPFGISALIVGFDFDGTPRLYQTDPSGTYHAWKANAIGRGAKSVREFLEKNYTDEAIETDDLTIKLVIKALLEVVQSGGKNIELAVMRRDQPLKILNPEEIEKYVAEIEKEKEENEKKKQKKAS

## B1
Bovine iCP subunit α3
  binding result: binds
Bovine iCP subunit α4
  binding result: binds
Bovine iCP subunit α6
  binding result: binds

## B2
Bovine iCP subunit α3
  binding result: binds

## B3
Human PA28α
  binding result: binds

## B4
Human PA28α
  binding result: binds

## B5
Human PA28β
  binding result: binds
Human PA28α
  binding result: binds
